Data as given in patent publication US20210238276A1 (INTEGRAL MOLECULAR, published 2021).
Positions count from the first letter of the chain named.

Key:
Assay in all cases: flow cytometry, alanine-scan library in HEK-293T, with cytochalasin B
hsGLUT4 E345A = target: T1, hsGLUT4 E345A (human, UniProt P14672 1-509)
T1 sequence: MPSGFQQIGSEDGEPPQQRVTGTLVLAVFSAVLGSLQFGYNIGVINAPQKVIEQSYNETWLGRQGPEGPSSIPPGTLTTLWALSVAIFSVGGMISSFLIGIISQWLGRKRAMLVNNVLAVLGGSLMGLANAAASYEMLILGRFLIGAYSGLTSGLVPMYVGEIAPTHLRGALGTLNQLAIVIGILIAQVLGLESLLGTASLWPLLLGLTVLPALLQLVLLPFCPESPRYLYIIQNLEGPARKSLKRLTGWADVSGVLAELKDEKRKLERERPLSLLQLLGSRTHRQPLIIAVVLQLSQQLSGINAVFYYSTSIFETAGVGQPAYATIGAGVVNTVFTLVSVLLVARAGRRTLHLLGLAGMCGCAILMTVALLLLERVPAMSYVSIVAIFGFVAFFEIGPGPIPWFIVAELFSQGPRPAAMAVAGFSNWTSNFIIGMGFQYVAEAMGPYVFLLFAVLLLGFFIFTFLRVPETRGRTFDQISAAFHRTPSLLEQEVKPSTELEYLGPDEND
Procedure: (§1) Because of the state-dependence of the isolated MAbs, we next wished to understand the mechanism by which each MAb could recognize GLUT4 in its different conformations. The residues required for binding of each MAb were determined using shotgun mutagenesis comprehensive alanine scanning (Davidson E & Doranz B J (2014) A High-Throughput Shotgun Mutagenesis Approach to Mapping B-cell Antibody Epitopes. Immunology, which is hereby incorporated by reference in its entirety). All residues of hsGLUT4 were individually mutated to alanine, with existing alanines changed to serines. Mutations were obtained for 508 of the 509 residues of GLUT4 (excluding the initiating methionine). The entire mutation library was transfected into human HEK-293T cells in a 384-well array format (one clone per well) and assessed for immunoreactivity using high-throughput flow cytometry.
(§2) HEK-293T cells were transfected by CaPO₄ with plasmids in 6-well culture plates (Falcon) at 750,000 cells/well. At 48 hours post transfection, cells were stained with anti-V5 and anti-GLUT4 MAbs (purified scFv, 2 μg/ml) followed by biotinylated goat anti-mouse or human antibody (1:500) and streptavidin-PerCP (1:500). Fluorescence was detected using an Intellicyt high-throughput flow cytometer (HTFC; Intellicyt, Albuquerque, N. Mex.). For cell permeabilization, cells were treated with saponin at 0.1% in PBS for 20 minutes. To discriminate intact (live) and permeabilized (dead) cells without the use of detergent, propidium iodide (PI) was added to HEK-293T cells at 1 ug/ml just prior to flow cytometry. Where indicated, cytochalasin B (Sigma) was used at a final concentration of 10 uM and phloretin (Sigma) was used at a final concentration of 100 uM, each added in 10% NGS for 30 minutes prior to antibody staining as well as included with the primary antibody.

hsGLUT4 G65A = target: T2, hsGLUT4 G65A (human, UniProt P14672 1-509)
T2 sequence: T1 sequence with G65A, A345E
Procedure: as §1, §2

hsGLUT4 Y502A = target: T3, hsGLUT4 Y502A (human, UniProt P14672 1-509)
T3 sequence: T1 sequence with A345E, Y502A
Procedure: as §1, §2

hsGLUT4 L247A = target: T4, hsGLUT4 L247A (human, UniProt P14672 1-509)
T4 sequence: T1 sequence with L247A, A345E
Procedure: as §1, §2

B1: AB102 (Fc fusion)
scFv: ALTQPSSVSANLGGTVKITCSGGGSYGYGWYQQKSPGSAPVTVIYSNDQRPSDIPSRFSGSKSGSTATLTITGVRAEDEAIYYCGSTDSDYVGIFGAGTTLTVLGQSSRSSGGGGSSGGGGSAVTLDESGGGLQTPGGTLSLVCKASGFDFSSYATIWVRQAPGKGLEWVAGISGTGTGSSTGYAPAVKGRATISRDNGQSTVRLQLNNLRAEDTGSYFCAKSTGYGDSWIYPDSIDAWGHGTEVIVSS
notes: also called MAb AB102; not shown: Fc fragment of human IgG1, cloned in frame with the scFv
% of binding to wild type GLUT4 (hsGLUT4 E345A): 80%
% of binding to wild type GLUT4 (hsGLUT4 G65A): 95%
% of binding to wild type GLUT4 (hsGLUT4 Y502A): 94%
% of binding to wild type GLUT4 (hsGLUT4 L247A): 15%
